Source: IntAct's records for PubMed 17805301

B1: CREB-regulated transcription coactivator 2 (Mus musculus), Q3U182 (parent)
chain: MATSGANGPGSATASASNPRKFSEKIALQKQRQAEETAAFEEVMMDIGSTRLQAQKLRLAYTRSSHYGGSLPNVNQIGCGLAEFQSPLHSPLDSSRSTRHHGLVERVQRDARRMVSPLRRYPRHIDSSPYSPAYLSPPPESGWRRMMPWGNLPAEKGQLFRLPSALNRTSSDSALHTSVMNPNPQDTYPGPTPPSVLPSRRGGGFLDGEMDAKVPAIEENVVDDKHLLKPWDAKKLSSSSSRPRSCEVPGINIFPSPDQPANVPVLPPAMNTGGSLPDLTNLHFPPPLPTPLDPEETVYPSLSGGNSTTNLTHTMTHLGISGGLGLGPSYDVPGLHSPLSHPSLQSSLSNPNLQASLSSPQPQLQGSHSHPSLPASSLAHHALPTTSLGHPSLSAPALSSSSSSSSTSSPVLSAPPYPASTPGASPRHRRVPLSPLSLPAGPADARRSQQQLPKQFSPTMSPTLSSITQGVPLDTSKLPTDQRLPPYPYSPPSLVIPTHPPTPKSLQQLPSQACLVQPSGGQPPGRQPHYGALYPPGSSGHGQQPYHRPINDFSLGNLEQFNMESPSTSLVLDPPAFSEGPGFLGSEGSMSGPQDPHVLNHQNLTHCSRHGSGPNIILTGDSSPGFSKEIAAALAGVPGFEVSASGLELGLGLEDELRMEPLGLEGLTMLSDPCALLPDPAVEDSFRSDRLQ

Variants of: B1
Settings: with cop1_mouse Cop1, Q9R1A8
cop1_mouse Cop1, Q9R1A8, sequence (Q9R1A8 whole entry): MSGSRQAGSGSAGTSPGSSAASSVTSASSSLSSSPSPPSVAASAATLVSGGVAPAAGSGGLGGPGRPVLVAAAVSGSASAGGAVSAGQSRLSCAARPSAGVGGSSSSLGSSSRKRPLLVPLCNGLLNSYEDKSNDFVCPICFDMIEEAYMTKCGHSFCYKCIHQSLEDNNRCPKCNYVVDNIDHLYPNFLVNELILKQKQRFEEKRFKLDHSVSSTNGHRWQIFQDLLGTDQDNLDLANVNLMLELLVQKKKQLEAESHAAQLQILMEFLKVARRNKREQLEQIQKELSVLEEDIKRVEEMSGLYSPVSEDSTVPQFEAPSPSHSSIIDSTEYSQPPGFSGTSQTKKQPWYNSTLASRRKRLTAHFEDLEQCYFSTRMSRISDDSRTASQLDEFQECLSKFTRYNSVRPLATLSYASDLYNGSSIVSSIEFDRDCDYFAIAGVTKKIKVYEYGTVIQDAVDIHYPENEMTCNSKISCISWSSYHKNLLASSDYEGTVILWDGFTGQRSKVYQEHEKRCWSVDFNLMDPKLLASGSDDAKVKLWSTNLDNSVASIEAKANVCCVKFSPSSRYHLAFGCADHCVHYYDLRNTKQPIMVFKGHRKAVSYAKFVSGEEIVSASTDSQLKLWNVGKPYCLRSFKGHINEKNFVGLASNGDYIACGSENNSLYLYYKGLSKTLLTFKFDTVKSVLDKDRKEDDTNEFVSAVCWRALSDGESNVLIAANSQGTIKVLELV

Variant	effect of a mutation on the interaction
V214A;P215A	disrupting interaction strength
